# According to the supplement of paper PMC12042874:
# ± gives the uncertainty stated by the source.
# Tests used:
# [1] = amyloid nucleation score (Sup35N fusion, yeast selection) (log enrichment); library NNK1; higher = more nucleation; inactive = no reads after selection
# How it was run: (§1)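 The nucleation score, computed with DiMSum, is the log enrichment of output over input reads, centred on the mode score of non-aggregating sequences. Sequences with under 100 input reads were dropped. Reads were generated by Illumina sequencing of plasmid inserts from psi-negative yeast with Sup35N fused to peptides of 20 random codons, induced with 100 μM copper sulfate for 24 hours and grown 7 days at 30°C on medium lacking adenine and uracil.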
# [2] = amyloid nucleation score (Sup35N fusion, yeast selection) (log enrichment); library NNK2; higher = more nucleation; inactive = no reads after selection
# How it was run: as §1
Substance,amyloid nucleation score [1],amyloid nucleation score [2]
SQCQFVMVDRNGYGTKLRNY,-0.24 ± 0.36,–
WRYKIIRSR,1.5 ± 0.4,–
TNELCMYCLGHLGY,0.694 ± 0.84,–
FTWWHIRGCGCCVACEGHRS,0.05 ± 0.65,–
NDRTKNQSYFP,-0.195 ± 0.29,–
LEITTHTSGIILMKGTPLRR,3.14 ± 0.087,–
GYVDGSRGRGAPNGAMCRCF,0.205 ± 0.76,–
FHSMDEHVLLILTKNSV,0.317 ± 0.6,–
QHRVCLHCYKM,-1.63 ± 2.7,–
ILMFISVFYCFCRKTRYLNR,1.01 ± 0.31,–
LEPNCVLSYTDSFVNQFVTL,0.119 ± 0.3,–
PQSHQKTRTFLFMRSTSSMW,-0.847 ± 0.52,–
THSIFFVQLRFPFMLTTS,-0.269 ± 0.78,–
IIAKNTDKVSCTVRVSFL,-0.894 ± 1.4,–
VIERFMAKRPGC,0.698 ± 0.68,–
IVMQVLTQTVMWIFYLNGSH,-0.254 ± 0.42,–
RDYFTN,0.789 ± 0.9,–
DALWKVFKDWLGGADQRGFP,0.29 ± 0.78,–
EFAKNSFAKNTFAADAWLII,0.802 ± 0.78,–
SFNYRIAFFSRYRPYMGSLG,1.76 ± 0.37,–
FCFGGNVGRYLMVRPCVFGY,0.035 ± 0.71,–
YIVVCSIRNLGRINLRGSDT,0.056 ± 0.8,–
EGTFRLID,0.047 ± 0.3,–
LSLSYPYFTFAHSVEMRESI,9.039 ± 0.053,–
VWIPYCLNFQSCNNHKLSLA,-1.13 ± 1,–

Substance,amyloid nucleation score [1],amyloid nucleation score [2]
SSFRYVCCASRCRETSELLG,0.142 ± 0.5,–
AMDMSADAGDSWNCGCQYSN,inactive,–
SITVKKES,0.254 ± 0.62,–
WRLFIWDRGSLWFEISYYFR,-0.164 ± 0.3,–
AFVEGRMNHPYSGTMLSRRG,0.418 ± 0.53,–
RFFCDCFFGSRGE,1.88 ± 0.36,–
YVRGSGMAPGD,inactive,–
GALGWWSSFVCEEAGKLTLR,0.792 ± 0.48,–
DCFARVLLTMRYLKGVVYTE,1.13 ± 0.27,–
IGYEGYPYASYGCRLLEQDA,0.168 ± 0.32,–
MHYWGTGKHQINTWNMILFI,3.95 ± 0.11,–
GGFFKRL,0.161 ± 0.36,–
SYRGWADADNLVLYPQNASV,0.021 ± 0.97,–
SVIRVLWKGYGTRN,-1.55 ± 1.4,–
LYTCCSTYVCSNLGRNVK,7.074 ± 0.06,–
GILKCAYKT,0.664 ± 0.66,–
LLNYGLRFCLVTARSELTYM,0.979 ± 0.62,–
VSLAAPGCGFGCQRSRGASQ,0.013 ± 1.1,–
TNTLLTPGCGINAIGVALYV,-0.628 ± 0.3,–
ITYTGASR,0.295 ± 0.57,–
ISPRDHESLTNFHVRLCHMR,0.368 ± 0.57,–
CYAPSFWTYWCLCSCMVDPN,5.8 ± 0.081,–
YSARMLIRLSLLGFLPVSAP,0.711 ± 0.55,–
CTVKLLMCQAISLTCSLGFF,0.534 ± 0.56,–
CCWNNSLS,inactive,–

Substance,amyloid nucleation score [1],amyloid nucleation score [2]
YNMREVLSCKF,-0.114 ± 0.59,–
LIIILVQQSEGACRILARD,0.028 ± 0.34,–
RNFPTRCMCIQNYAKL,2.22 ± 0.17,–
TRTKSGFSLYVRR,1.1 ± 0.71,–
VRKCRVNYGENGFKYRTRTM,0.739 ± 0.4,–
RIRWSVVVNV,-0.002 ± 0.29,–
EVADVGKMMIVVGDCRVFRW,5.593 ± 0.048,–
GKYKI,-0.476 ± 0.63,–
TQRVIGERRMNADCRACRLR,-0.061 ± 1.6,–
FVTDMAYNMMESGLHT,6.44 ± 0.044,–
VECSCKLRLAASGGNYRGWG,2.3 ± 0.25,–
CKVLCYIAYTWNLDCTEFEG,6.449 ± 0.063,–
GCVSVPYQLPPLISYGLVN,-0.123 ± 0.62,–
DFENWPVRLWYFKTIFLRS,1.93 ± 0.51,–
CARNNHELVNYFKAFIPVVA,0.751 ± 0.43,–
KANFFTLRSMFWGPMN,1.15 ± 0.64,–
LWDVRPWRWVWEWENVNYGK,0.382 ± 0.54,–
SALIAMYYHSSGTMWIQYFC,0.145 ± 0.83,–
RLCKKSIHRDVASRFPNEDV,1.02 ± 0.36,–
LKSDMIADTTAL,2.67 ± 0.12,–
QAVGSI,0.031 ± 0.33,–
CRSVCGRIS,0.177 ± 0.77,–
KGRSNLIADFGDLFGGLYTY,-0.57 ± 0.37,–
NVVHRLLWQSSVTSYIAVSY,1.86 ± 0.14,–
SYWLWTVNTMSLVPFRASCR,1.05 ± 0.36,–

Substance,amyloid nucleation score [1],amyloid nucleation score [2]
CLKLDNMTRLVTNGTLGSAS,inactive,–
ITKLIVSFQGFFV,4.24 ± 0.12,–
WLNWSSYRRTISKLVRGFFS,-0.295 ± 1.9,–
YSVINWFMVAYYRADRLVNG,-0.144 ± 1.2,–
SKCVSIMAS,inactive,–
FGVSVLCSEWGTPRFVCWVN,-0.6 ± 0.43,–
SRYYASMYLGNYGWHVLLNW,-0.103 ± 0.23,–
ITGLVRLFC,0.134 ± 1,–
LYAHYRADVHEEKSLYYVIA,0.101 ± 0.23,–
NKWSRSGKRCAKMGNSCSDE,1.49 ± 0.69,–
LLFFGYYAFDHICYAEYLSC,2.71 ± 0.14,–
NKTLV,inactive,–
YGRRGNFPSRWTSQHADIKF,-0.308 ± 0.57,–
VFAVERCDFSLRPNVMLVSY,1.08 ± 0.92,–
DIKCLLR,0.238 ± 0.36,–
RSPFWRDVKNKITVSPIFAN,0.945 ± 0.61,–
TCCDRSRCSESSEGRRFQRT,0.162 ± 0.3,–
MNLQYHILN,-0.345 ± 1.7,–
YLNYWFR,-0.341 ± 0.28,–
NREGCIMWHRRVLARRCLTS,0.145 ± 0.89,–
TEALYWRLYMGQNKILSCRG,0.366 ± 0.61,–
NYVPIWSGA,inactive,–
LNKVWFSWSRDKVRYTGMLV,-0.857 ± 0.48,–
LRDISEH,-0.588 ± 0.53,–
LSGFLSYYLCKPKA,-0.887 ± 0.38,–

Substance,amyloid nucleation score [1],amyloid nucleation score [2]
LLLLIN,-0.663 ± 1.7,–
ISCTNCLKCPLYTSFRPLLC,-0.13 ± 0.44,–
SSYAHAVRTQDFKLASGHYV,-0.7 ± 0.88,–
FRTYIFP,-0.091 ± 0.51,–
RSETGMYSAHACLL,-0.314 ± 1.7,–
AVQYNKVKERTLSQPWTHHV,-1.86 ± 1.7,–
HVVKCGHYLRRVRNMGKLEF,-0.163 ± 0.79,–
DPVTDVFG,-0.541 ± 0.36,–
WYDAK,0.286 ± 0.36,–
ATSGGYGRFLVIISFDWVGA,-0.34 ± 0.37,–
VPLRTWLITWLGYNSHNWLC,-0.302 ± 0.76,–
LRGLCRVHWRSERAQSMRPG,–,0.892 ± 0.45
HRFVFGVYWVVVR,–,inactive
GLWRLYWILFHF,–,-1.17 ± 0.78
MVVRDL,–,-0.536 ± 1
HITRGVVPTAV,–,0.655 ± 0.74
RRMYMQPTKLPFYIPGRMCP,–,inactive
DNDCHCSWENISYLWGHLRG,–,inactive
HCSVSLTFFVLQTPL,–,4.79 ± 0.069
LNQCWRI,–,inactive
RLSFQSCCLPFVYWNWW,–,7.738 ± 0.048
DARFLPVVLRKKTDSICYVN,–,-0.177 ± 0.79
YSRTQENNAGLSYIACTGRR,–,0.168 ± 0.56
TIFGRENYEDVKSASEVGLS,–,0.135 ± 0.79
KACWCLYQGLTLSAQVQLWP,–,1.26 ± 0.26

Substance,amyloid nucleation score [1],amyloid nucleation score [2]
SMKNK,–,0.185 ± 0.4
KIEVRLRVTYGYSSLVQAVG,–,-0.326 ± 1
CMNTISVLSECASTRQTC,–,-0.068 ± 0.31
PSIKCTLFYSVTYLFMWGRK,–,-0.406 ± 0.63
LGLNLTRDYLMLGKRLKCCR,–,-0.993 ± 0.78
CGRVTTFSLRNVARVCVSAF,–,-0.308 ± 0.25
VAVFLNNA,–,inactive
VVNRYRNTFFCVYWTSAGVL,–,6.65 ± 0.073
AYTMQLNHRLVLSVSS,–,0.219 ± 0.74
CRASG,–,0.409 ± 0.25
SLLNTGRYCWC,–,1.05 ± 0.35
FFNMMSK,–,-1.72 ± 0.62
GYDNTAWELTGGVD,–,-0.311 ± 0.3
HTHTWT,–,1.31 ± 0.38
AWGYDKAVIFGAVDLQHVGT,–,0.062 ± 0.79
ESSLDCMRDANNKAAWVEVV,–,1.05 ± 0.23
VAPTETRVDPIPSVGPVPGA,–,1.66 ± 0.34
RVTNLIHQLRVPKIGKSGFA,–,0.294 ± 0.23
LNSYRPWCWY,–,inactive
RSIDRYRHHNLCRNQYVM,–,-0.693 ± 1.1
THVNFW,–,inactive
QFWHKSVSTCLWCCSVAGSW,–,8.73 ± 0.071
HHRGMIMLHNINYLRSFNAT,–,-0.465 ± 0.44
YGEELE,–,inactive
QRYCRA,–,0.94 ± 0.23

Substance,amyloid nucleation score [1],amyloid nucleation score [2]
RPNFFVLNSNMNNYVQARVP,–,4.59 ± 0.047
LMYTFVGCSINVCFGGSGCL,–,8.873 ± 0.034
LWIYRVAYFGFLNYKFSVFL,–,-1.09 ± 0.42
GVCRDNILRENFGGWSTSRS,–,0.15 ± 0.46
DGSERIPCLSNYHMLRLTNS,–,-0.001 ± 0.32
PGRDTVTLLHLCHFGVGSGF,–,0.165 ± 1
LQVVKKSNA,–,3.61 ± 0.061
VKGGSRS,–,-0.186 ± 0.49
NFYAYIIVDCSWMCSTCYSL,–,5.52 ± 0.044
ISGRLNRDGGSDKMSAEREG,–,1.25 ± 0.33
CNLCSDP,–,inactive
HSGMRMRPASSCSPKKP,–,0.189 ± 0.49
AGFWEDEVFRV,–,-0.714 ± 0.48
VSCDNASSVLFFVRTTIWCT,–,0.751 ± 0.74
TPNIGSSRVVMLSLQLLN,–,6.955 ± 0.054
WWSSDS,–,1.73 ± 0.078
SETYTLIRARYIMV,–,-1.24 ± 0.75
CGNNCTQYRHDWWGGMKLRD,–,2.38 ± 0.085
SWGLPKVVIGGLQMRLEVGA,–,0.754 ± 0.39
RQVSHVNFAVLNINYNWYRS,–,8.16 ± 0.084
AAPGCFNLKFLS,–,-0.36 ± 0.74
GTDTTIDLNSYGHYYSLCVR,–,0.334 ± 0.65
